Earlier results, collected in publication PMC11727785.
Like-named read-outs stand apart in the source and are kept apart here.

Key:
[1] = target: IL-18 receptor complex (Homo sapiens) (UniProt Q13478)
[2] = target: IL-18 receptor alpha chain (Homo sapiens) (UniProt Q13478)
IL-18 (Homo sapiens) [3] = target: IL-18 (Homo sapiens) (UniProt Q14116)
IL-18 (Homo sapiens) [4] = target: IL-18 (Homo sapiens) (UniProt Q14116); experiment: SPR

Chain of IL-18BP (O95998 31-194): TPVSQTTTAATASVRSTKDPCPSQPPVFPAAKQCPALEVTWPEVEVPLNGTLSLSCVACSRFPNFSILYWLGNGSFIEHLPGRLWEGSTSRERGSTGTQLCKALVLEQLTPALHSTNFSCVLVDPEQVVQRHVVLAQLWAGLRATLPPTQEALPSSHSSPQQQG
Chain of IL-18 (Q14116 37-193): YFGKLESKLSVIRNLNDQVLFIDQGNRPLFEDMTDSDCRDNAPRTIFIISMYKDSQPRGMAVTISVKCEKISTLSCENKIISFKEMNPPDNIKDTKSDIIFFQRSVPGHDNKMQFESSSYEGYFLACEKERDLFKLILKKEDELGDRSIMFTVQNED
Chain of IL-18 (Homo sapiens) (Q14116 37-193): as above
Chain of IL-18 receptor alpha chain (Homo sapiens) (Q13478 19-541): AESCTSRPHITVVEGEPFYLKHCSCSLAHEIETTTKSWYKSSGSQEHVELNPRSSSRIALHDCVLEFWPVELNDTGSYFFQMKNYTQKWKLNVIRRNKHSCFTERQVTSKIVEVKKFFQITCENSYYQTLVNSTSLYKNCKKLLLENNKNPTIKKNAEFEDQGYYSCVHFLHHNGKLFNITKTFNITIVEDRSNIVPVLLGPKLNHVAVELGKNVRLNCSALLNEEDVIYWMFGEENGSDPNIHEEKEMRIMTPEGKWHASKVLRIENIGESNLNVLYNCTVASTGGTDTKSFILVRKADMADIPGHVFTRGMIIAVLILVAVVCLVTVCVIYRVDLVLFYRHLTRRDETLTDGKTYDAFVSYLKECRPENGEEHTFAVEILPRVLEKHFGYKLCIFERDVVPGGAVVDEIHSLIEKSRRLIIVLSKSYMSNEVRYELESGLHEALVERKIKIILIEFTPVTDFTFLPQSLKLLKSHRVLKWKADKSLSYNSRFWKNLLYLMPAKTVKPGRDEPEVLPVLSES
Chain of IL-18 receptor complex (Homo sapiens) (Q13478 19-541, chain 1 of 2): as the sequence (Q13478 19-541) above
Chain of IL-18 receptor complex (Homo sapiens) (O95256 20-599, chain 2 of 2, further chain): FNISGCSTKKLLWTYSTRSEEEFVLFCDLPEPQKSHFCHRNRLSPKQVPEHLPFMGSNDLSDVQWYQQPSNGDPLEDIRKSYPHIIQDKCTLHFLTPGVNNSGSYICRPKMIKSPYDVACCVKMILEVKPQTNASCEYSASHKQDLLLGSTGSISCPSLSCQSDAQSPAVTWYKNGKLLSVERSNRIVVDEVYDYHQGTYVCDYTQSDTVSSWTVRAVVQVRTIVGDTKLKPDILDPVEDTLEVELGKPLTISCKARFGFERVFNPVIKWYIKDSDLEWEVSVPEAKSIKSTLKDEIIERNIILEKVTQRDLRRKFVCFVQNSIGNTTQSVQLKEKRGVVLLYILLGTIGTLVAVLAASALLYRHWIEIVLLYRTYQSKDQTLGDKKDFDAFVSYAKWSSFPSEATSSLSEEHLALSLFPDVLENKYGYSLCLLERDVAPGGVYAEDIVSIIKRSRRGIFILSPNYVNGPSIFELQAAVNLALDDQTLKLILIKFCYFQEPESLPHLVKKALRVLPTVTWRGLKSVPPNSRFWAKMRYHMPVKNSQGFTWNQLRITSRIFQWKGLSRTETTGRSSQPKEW

Row | Kd [1] [nM] | Kd [2] [nM] | Substance | Kd (IL-18 (Homo sapiens) [3]) [nM] | Kd (IL-18 (Homo sapiens) [4]) [nM]
1 | 0.4 | 18.5 | IL-18 (from UniProt Q14116) |  | 
2 |  |  | IL-18BP (from UniProt O95998) | 0.05 | 0.4
